Laboratory results from publication doi:10.64898/2025.12.15.694324.

Target: PARP15^CAT WT, isolated catalytic domain of human PARP15, batch with His-tag (human)
Assay: native MS

- stoichiometry N: 2
Substance: PARP15^CAT WT, isolated catalytic domain of human PARP15, batch with His-tag (domain or fragment)
